Measurements reported in patent US20230192903A1 (published 2023).

B1: bispecific antibody CS2 (bispecific antibody, human IgG1, kappa)
light: DIVMTQSPSSLTVTAGEKVTMSCKSSQSLLNSGNQKNYLTWYQQKPGQPPKLLIYWASTRESGVPDRFTGSGSGTDFTLTISSVQAEDLAVYYCQNDYSYPFTFGSGTKLEIKRTVAAPSVFIFPPSDEQLKSGTASVVCLLNNFYPREAKVQWKVDNALQSGNSQESVTEQDSKDSTYSLSSTLTLSKADYEKHKVYACEVTHQGLSSPVTKSFNRGEC
heavy 1: QVQLQQPGAELVRPGASVKLSCKASGYTFTSYWINWVKQRPGQGLEWIGNIYPSDSYTNYNQKFKDKATLTVDKSSSTAYMQLSSPTSEDSAVYYCTRSWRGNSFDYWGQGTTLTVSSASTKGPSVFPLAPSSKSTSGGTAALGCLVKDYFPEPVTVSWNSGALTSGVHTFPAVLQSSGLYSLSSVVTVPSSSLGTQTYICNVNHKPSNTKVDKKVEPKSCDKTHTCPPCPAPPVAGPSVFLFPPKPKDTLMISRTPEVTCVVVDVSHEAPEVQFNWYVDGVEVHNAKTKPREEQFNSTFRVVSVLTVVHQDWLNGKEYKCKVSNKGLPAPIEKTISKTKGQPREPQVYTLPPCRDELTKNQVSLWCLVKGFYPSDIAVEWESNGQPENNYKTTPPVLDSDGSFFLYSKLTVDKSRWQQGNVFSCSVMHEALHNHYTQKSLSLSPGK
heavy 2: QVQLQQPGAELVRPGASVKLSCKASGYTFTSYWINWVKQRPGQGLEWIGNIYPSDSYTNYNQKFKDKATLTVDKSSSTAYMQLSSPTSEDSAVYYCTRSWRGNSFDYWGQGTTLTVSSASTKGPSVFPLAPSSKSTSGGTAALGCLVKDYFPEPVTVSWNSGALTSGVHTFPAVLQSSGLYSLSSVVTVPSSSLGTQTYICNVNHKPSNTKVDKKVEPKSCDKTHTAPAPAPAPAPAPAPAPQVQLVESGGGVVQPGRSLRLSCAASGFTFSTYAMNWVRQAPGKGLEWVARIRSKYNNYATYYADSVKDRFTISRDDSKNTLYLQMNSLRAEDTAVYYCARHGNFGNSYVSWFAYWGQGTLVTVSSGGGGSGGGGSGGGGSQTVVTQEPSLTVSPGGTVTLTCRSSTGAVTTSNYANWVQQKPGQAPRGLIGGTNKRAPGVPARFSGSLLGGKAALTLSGVQPEDEAEYYCALWYSNLWVFGGGTKVEIKGGGGSDKTHTCPPCPAPPVAGPSVFLFPPKPKDTLMISRTPEVTCVVVDVSHEAPEVQFNWYVDGVEVHNAKTKPREEQFNSTFRVVSVLTVVHQDWLNGKEYKCKVSNKGLPAPIEKTISKTKGQPREPQVCTLPPSRDELTKNQVSLSCAVKGFYPSDIAVEWESNGQPENNYKTTPPVLDSDGSFFLVSKLTVDKSRWQQGNVFSCSVMHEALHNHYTQKSLSLSPGK
notes: CSBODY structure: two 175D10 Fab arms; second heavy chain (first heavy entry) and first heavy chain with anti-CD3 scFv (2a5) between CH1 and Fc2
B2: bispecific antibody Y6 (bispecific antibody, human IgG1, kappa)
light: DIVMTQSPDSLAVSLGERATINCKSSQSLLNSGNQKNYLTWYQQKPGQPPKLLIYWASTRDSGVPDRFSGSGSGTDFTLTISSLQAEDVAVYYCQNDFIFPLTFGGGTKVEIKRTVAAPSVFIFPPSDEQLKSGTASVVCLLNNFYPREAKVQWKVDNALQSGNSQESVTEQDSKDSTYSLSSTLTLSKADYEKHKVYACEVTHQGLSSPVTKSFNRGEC
heavy: QVQLQESGPGLVKPSETLSLTCTVSGFSLTRYGVSWIRQPPGKGLEWIGVIWGEGNTNYNPSLKSRVTISKDSSKSQVSLKLSSVTAADTAVYYCARVNFGNALDYWGQGTLVTVSSASTKGPSVFPLAPSSKSTSGGTAALGCLVKDYFPEPVTVSWNSGALTSGVHTFPAVLQSSGLYSLSSVVTVPSSSLGTQTYICNVNHKPSNTKVDKKVEPKSCDKTHTCPPCPAPPVAGPSVFLFPPKPKDTLMISRTPEVTCVVVDVSHEAPEVQFNWYVDGVEVHNAKTKPREEQFNSTFRVVSVLTVVHQDWLNGKEYKCKVSNKGLPAPIEKTISKTKGQPREPQVYTLPPCRDELTKNQVSLWCLVKGFYPSDIAVEWESNGQPENNYKTTPPVLDSDGSFFLYSKLTVDKSRWQQGNVFSCSVMHEALHNHYTQKSLSLSPGK
chain: QVQLVESGGGVVQPGRSLRLSCAASGFTFSTYAMNWVRQAPGKGLEWVARIRSKYNNYATYYADSVKDRFTISRDDSKNTLYLQMNSLRAEDTAVYYCARHGNFGNSYVSWFAYWGQGTLVTVSSGGGGSGGGGSGGGGSQTVVTQEPSLTVSPGGTVTLTCRSSTGAVTTSNYANWVQQKPGQAPRGLIGGTNKRAPGVPARFSGSLLGGKAALTLSGVQPEDEAEYYCALWYSNLWVFGGGTKVEIKGRGRGSDKTHTCPPCPAPPVAGPSVFLFPPKPKDTLMISRTPEVTCVVVDVSHEAPEVQFNWYVDGVEVHNAKTKPREEQFNSTFRVVSVLTVVHQDWLNGKEYKCKVSNKGLPAPIEKTISKTKGQPREPQVCTLPPSRDELTKNQVSLSCAVKGFYPSDIAVEWESNGQPENNYKTTPPVLDSDGSFFLVSKLTVDKSRWQQGNVFSCSVMHEALHNHYTQKSLSLSPGK
notes: YBODY structure: anti-CLDN18.2 Fab arm (2C6.9) and second monomer anti-CD3 scFv (2a5)-Fc
B3: bispecific antibody CS4 (bispecific antibody, human IgG1, kappa)
light: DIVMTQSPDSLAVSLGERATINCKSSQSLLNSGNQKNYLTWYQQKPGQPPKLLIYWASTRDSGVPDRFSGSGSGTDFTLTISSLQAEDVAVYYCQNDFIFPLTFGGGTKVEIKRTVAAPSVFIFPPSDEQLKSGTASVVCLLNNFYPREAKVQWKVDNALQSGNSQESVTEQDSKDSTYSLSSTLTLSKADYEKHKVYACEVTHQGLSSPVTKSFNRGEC
heavy 1: QVQLQESGPGLVKPSETLSLTCTVSGFSLTRYGVSWIRQPPGKGLEWIGVIWGEGNTNYNPSLKSRVTISKDSSKSQVSLKLSSVTAADTAVYYCARVNFGNALDYWGQGTLVTVSSASTKGPSVFPLAPSSKSTSGGTAALGCLVKDYFPEPVTVSWNSGALTSGVHTFPAVLQSSGLYSLSSVVTVPSSSLGTQTYICNVNHKPSNTKVDKKVEPKSCDKTHTCPPCPAPPVAGPSVFLFPPKPKDTLMISRTPEVTCVVVDVSHEAPEVQFNWYVDGVEVHNAKTKPREEQFNSTFRVVSVLTVVHQDWLNGKEYKCKVSNKGLPAPIEKTISKTKGQPREPQVYTLPPCRDELTKNQVSLWCLVKGFYPSDIAVEWESNGQPENNYKTTPPVLDSDGSFFLYSKLTVDKSRWQQGNVFSCSVMHEALHNHYTQKSLSLSPGK
heavy 2: QVQLQESGPGLVKPSETLSLTCTVSGFSLTRYGVSWIRQPPGKGLEWIGVIWGEGNTNYNPSLKSRVTISKDSSKSQVSLKLSSVTAADTAVYYCARVNFGNALDYWGQGTLVTVSSASTKGPSVFPLAPSSKSTSGGTAALGCLVKDYFPEPVTVSWNSGALTSGVHTFPAVLQSSGLYSLSSVVTVPSSSLGTQTYICNVNHKPSNTKVDKKVEPKSCDKTHTAPAPAPAPAPAPAPAPQVQLVESGGGVVQPGRSLRLSCAASGFTFSTYAMNWVRQAPGKGLEWVARIRSKYNNYATYYADSVKDRFTISRDDSKNTLYLQMNSLRAEDTAVYYCARHGNFGNSYVSWFAYWGQGTLVTVSSGGGGSGGGGSGGGGSQTVVTQEPSLTVSPGGTVTLTCRSSTGAVTTSNYANWVQQKPGQAPRGLIGGTNKRAPGVPARFSGSLLGGKAALTLSGVQPEDEAEYYCALWYSNLWVFGGGTKVEIKGGGGSDKTHTCPPCPAPPVAGPSVFLFPPKPKDTLMISRTPEVTCVVVDVSHEAPEVQFNWYVDGVEVHNAKTKPREEQFNSTFRVVSVLTVVHQDWLNGKEYKCKVSNKGLPAPIEKTISKTKGQPREPQVCTLPPSRDELTKNQVSLSCAVKGFYPSDIAVEWESNGQPENNYKTTPPVLDSDGSFFLVSKLTVDKSRWQQGNVFSCSVMHEALHNHYTQKSLSLSPGK
notes: CSBODY structure: two 2C6.9 Fab arms; second heavy chain (first heavy entry) and first heavy chain with anti-CD3 scFv (2a5) between CH1 and Fc2
B4: bispecific antibody Y7 (bispecific antibody, human IgG1, kappa)
light: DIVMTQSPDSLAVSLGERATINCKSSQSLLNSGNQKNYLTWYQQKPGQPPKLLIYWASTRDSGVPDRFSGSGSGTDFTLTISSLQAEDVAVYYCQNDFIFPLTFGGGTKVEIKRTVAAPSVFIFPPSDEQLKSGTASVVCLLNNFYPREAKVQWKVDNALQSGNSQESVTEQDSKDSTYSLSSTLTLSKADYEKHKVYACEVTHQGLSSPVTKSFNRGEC
heavy: QVQLQESGPGLVKPSETLSLTCTVSGFSLTRYGVSWIRQPPGKGLEWIGVIWGEGNTNYNPSLKSRVTISKDSSKSQVSLKLSSVTAADTAVYYCARVNFGNALDYWGQGTLVTVSSASTKGPSVFPLAPSSKSTSGGTAALGCLVKDYFPEPVTVSWNSGALTSGVHTFPAVLQSSGLYSLSSVVTVPSSSLGTQTYICNVNHKPSNTKVDKKVEPKSCDKTHTCPPCPAPPVAGPSVFLFPPKPKDTLMISRTPEVTCVVVDVSHEAPEVQFNWYVDGVEVHNAKTKPREEQFNSTFRVVSVLTVVHQDWLNGKEYKCKVSNKGLPAPIEKTISKTKGQPREPQVYTLPPCRDELTKNQVSLWCLVKGFYPSDIAVEWESNGQPENNYKTTPPVLDSDGSFFLYSKLTVDKSRWQQGNVFSCSVMHEALHNHYTQKSLSLSPGK
chain: QVQLVESGGGVVQPGRSLRLSCAASGFTFSTYAMNWVRQAPGKGLEWVGRIRSKYNNYATYYADSVKDRFTISRDDSKNTLYLQMNSLRGEDTAVYYCARHGNFGNSYVSWFAYWGQGTLVTVSSGGGGSGGGGSGGGGSQTVVTQEPSLTVSPGGTVTLTCRSSTGAVTTSNYANWVQQKPGQAPRGLIGGTNKRAPGVPARFSGSLLGGKAALTLSGVQPEDEAEYTCALWYSNLWVFGGGTKVEIKGRGRGSDKTHTCPPCPAPPVAGPSVFLFPPKPKDTLMISRTPEVTCVVVDVSHEAPEVQFNWYVDGVEVHNAKTKPREEQFNSTFRVVSVLTVVHQDWLNGKEYKCKVSNKGLPAPIEKTISKTKGQPREPQVCTLPPSRDELTKNQVSLSCAVKGFYPSDIAVEWESNGQPENNYKTTPPVLDSDGSFFLVSKLTVDKSRWQQGNVFSCSVMHEALHNHYTQKSLSLSPGK
notes: YBODY structure: anti-CLDN18.2 Fab arm (2C6.9) and second monomer anti-CD3 scFv (Di6-2)-Fc

Legend:
Human CLDN18.2 [1] = molecular target: T1, Human CLDN18.2 (human); experiment: flow cytometry, NUGC4-hCLDN18.2 cells
T1 construct: the cell line is named under assay; also called hCLDN18.2; human CLDN18.2 antigen
Description: (§1) NUGC4 and NUGC4-hCLDN18.2 cells were cultured, digested with pancreatin and centrifuged to collect cells. The cells were collected and resuspended in buffer (PBS+1% FBS) at 1×10⁴ cells/well in a 96-well plate at 100 μL per well. Then the mixture was centrifuged at 350×g for 5 min, and the supernatant was removed.

Human CLDN18.2 [2] = molecular target: T1, Human CLDN18.2; experiment: cell-based or functional assay
Human CLDN18.2 [3] = molecular target: T1, Human CLDN18.2; experiment: cell-based or functional assay; remark: listed apart in the source
human CD3 antigen = molecular target: T2, human CD3 antigen (human, UniProt P07766 23-126); experiment: SPR (Biacore T200), human CD3 antigen amine-coupled on CM5 chip, 1:1 fit
T2 construct: also called Human CD3ϵ
Description: After the detection was completed, data fitting was carried out on the result pattern by adopting Biacore T200 Evaluation Software in a 1:1 binding fitting mode to obtain an equilibrium dissociation constant (KD).

Human CLDN18.2 [4] = molecular target: T1, Human CLDN18.2; experiment: flow cytometry, NUGC4 cells (endogenous CLDN18.2)
Description: as §1

| Binder | EC50 (Human CLDN18.2 [1]) | EC50 (pM), in vitro killing by hPBMC, NUGC4-hCLDN18.2 cells (Human CLDN18.2 [2]) | Induction of expression of CD25 EC50 (pM), NUGC4 (Human CLDN18.2 [3]) | Induction of expression of CD25 EC50 (pM), NUGC4-hCLDN18.2 (Human CLDN18.2 [3]) | Induction of expression of CD69 EC50 (pM), NUGC4 (Human CLDN18.2 [3]) | Induction of expression of CD69 EC50 (pM), NUGC4-hCLDN18.2 (Human CLDN18.2 [3]) | Kd (human CD3 antigen) | EC50 (Human CLDN18.2 [4]) | EC50 (pM), in vitro killing by hPBMC, NUGC4 cells (Human CLDN18.2 [2]) |
| --- | --- | --- | --- | --- | --- | --- | --- | --- | --- |
| B1 | 36 nM | 2.17 pM | 216 pM | 1.21 pM | 29.5 pM | 0.389 pM | 3.1 nM |  |  |
| B2 | 45.9 nM | 1.07 pM | 17.2 pM | 2.32 pM | 4.87 pM | 0.592 pM | 5.77 nM | 184 nM | 7.99 pM |
| B3 | 18.9 nM | 0.306 pM | 2.38 pM | 1.19 pM | 0.446 pM | 0.196 pM | 12 nM | 23.4 nM | 0.94 pM |
| B4 | 25.4 nM | 0.655 pM | 15.7 pM | 1.78 pM | 4.13 pM | 0.465 pM | 4.86 nM | 127 nM | 5.83 pM |
